From patent US9012420B2, “Aptamer for chymase, and use thereof” (Ribomic Inc., priority 2009, dated 2015)
Oligonucleotides are written 5' to 3', each unit as a sugar letter and its base; * is a phosphorothioate linkage, no mark a phosphodiester; rarer units and linkages stand in square brackets, end groups in braces. Plain capitals give the bases only. r = 2'-OH (RNA); f = 2'-fluoro

T1: chymase (recombinant) (UniProt P23946 P23946:22-247)
T1 sequence: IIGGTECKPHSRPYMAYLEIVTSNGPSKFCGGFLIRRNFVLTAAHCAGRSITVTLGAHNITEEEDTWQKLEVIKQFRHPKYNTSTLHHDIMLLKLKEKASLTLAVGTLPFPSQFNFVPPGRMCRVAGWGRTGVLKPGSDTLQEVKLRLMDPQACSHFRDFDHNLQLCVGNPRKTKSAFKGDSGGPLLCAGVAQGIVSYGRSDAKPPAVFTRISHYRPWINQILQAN

T2: chymase (Homo sapiens, UniProt P23946)
T2 sequence (P23946 22-247): T1 sequence

T3: chymase (recombinant, manufactured by SIGMA) (Homo sapiens, UniProt P23946)
T3 construct: purchased SIGMA; host or cells: yeast
T3 sequence (P23946 22-247): T1 sequence

B1: SEQ 41 (ssRNA)
RNA: GGGAGCAGGAGAGAGGUCAGAUGGUGAGAUAGAGUUAAACACCACAAUAGUAGCCUAUGCGUGCUAGUGUGA
modifications: 2'-F pyrimidines
B2: 41 (nucleic acid)
chain: B1 RNA
modifications: aptamer; 2'-fluoro at CU, RNA at AG, backbone not given here
B3: 56(32) (ssRNA)
RNA: GGGUUAGAUAGAGUUAAAAACCC
modifications: idT-G(M)G(M)G(M)U(F)U(F)AGAU(F)A(M)GAG(M)U(F)U(F)A(M)A(M)A(M)A(M)A(M)C(F)C(F)C(F)-idT (M=2'-OMe, F=2'-F)
B4: GGGACGGUAGGAAUUCAGCUGACUCCAAUGCACACGUAGAUAGAGUUAAAACGUUGCAUAGAAGAGCGGCCGC (nucleic acid)
chain: rGrGrGrAfCrGrGfUrArGrGrArAfUfUfCrArGfCfUrGrAfCfUfCfCrArAfUrGfCrAfCrAfCrGfUrArGrAfUrArGrArGfUfUrArArArAfCrGfUfUrGfCrAfUrArGrArArGrArGfCrGrGfCfCrGfC
modifications: aptamer
B5: SEQ 47 (ssRNA)
RNA: GGGAGCAGGAGAGAGGUCAGAUGGUGAUAGAUAGAGUUAAAAUCGCUGAAUGGCCUAUGCGUGCUAGUGUGA
modifications: 2'-F pyrimidines
B6: GGGACGGUAGGAAUUCGUCCUCAUGUCUAUUUUGCAGAUAGACUUAAAGCAAACAUAGAAGAGCGGCCGC (nucleic acid)
chain: rGrGrGrAfCrGrGfUrArGrGrArAfUfUfCrGfUfCfCfUfCrAfUrGfUfCfUrAfUfUfUfUrGfCrArGrAfUrArGrAfCfUfUrArArArGfCrArArAfCrAfUrArGrArArGrArGfCrGrGfCfCrGfC
B7: GGGACGGUAGGAAUUCGUCGAUUCUACAGAUAGAGAUAAAGUAGAAUUUAACAAAACAUAGAAGAGCGGCCGC (nucleic acid)
chain: rGrGrGrAfCrGrGfUrArGrGrArAfUfUfCrGfUfCrGrAfUfUfCfUrAfCrArGrAfUrArGrArGrAfUrArArArGfUrArGrArAfUfUfUrArAfCrArArArAfCrAfUrArGrArArGrArGfCrGrGfCfCrGfC
modifications: aptamer
B8: SEQ 40 (ssRNA)
RNA: GGGAGCAGGAGAGAGGUCAGAUGAACGGAUAGAGCUAAGAGUUCGUCAGAGGGGCCUAUGCGUGCUAGUGUGA
modifications: 2'-F pyrimidines
B9: GGGACGGUAGGAAUUCGUCCCUCUUGUCUAUUUUGCAGAUAGACUUAAAGCAAACAUAGAAGAGCGGCCGC (nucleic acid)
chain: rGrGrGrAfCrGrGfUrArGrGrArAfUfUfCrGfUfCfCfCfUfCfUfUrGfUfCfUrAfUfUfUfUrGfCrArGrAfUrArGrAfCfUfUrArArArGfCrArArAfCrAfUrArGrArArGrArGfCrGrGfCfCrGfC
B10: SEQ 46 (ssRNA)
RNA: GGGAGCAGGAGAGAGGUCAGAUGGGACAGAUAGAGUUAAAGUCCGUUACGUGGCCUAUGCGUGCUAGUGUGA
modifications: 2'-F pyrimidines
B11: SEQ 42 (ssRNA)
RNA: GGGAGCAGGAGAGAGGUCAGAUGCGUGAUCGUGCAAGGCGGAUAGAGUUAAGGCCUAUGCGUGCUAGUGUGA
modifications: 2'-F pyrimidines
B12: 72(1) (mixed)
mixed: GGGTTAGAUAGAGTUAAAAACCC
modifications: idT-G(M)G(M)G(M)ttAG(M)aU(F)A(M)GAG(M)tU(F)A(M)A(M)A(M)A(M)A(M)ccc-idT (lower case DNA)
B13: SEQ 45 (ssRNA)
RNA: GGGAGCAGGAGAGAGGUCAGAUGGACCACCGAUGGGCAAGAUAGAGUUAAAUGCCUAUGCGUGCUAGUGUGA
modifications: 2'-F pyrimidines
B14: GGGACGGUAGGAAUUCGUCCAUUCUACAGAUAGAGAUAAAGUAGAAUUUAACAAAACAUAGAAGAGCGGCCGC (nucleic acid)
chain: rGrGrGrAfCrGrGfUrArGrGrArAfUfUfCrGfUfCfCrAfUfUfCfUrAfCrArGrAfUrArGrArGrAfUrArArArGfUrArGrArAfUfUfUrArAfCrArArArAfCrAfUrArGrArArGrArGfCrGrGfCfCrGfC

Tests used:
chymase (recombinant) [1] = target: T1, chymase (recombinant); assay: inhibition; SPR ++ (Table 2); settings: tags: SIGMA, expressed in yeast
Description: (§1) Here, Suc is a protecting succinyl group, and MCA is a 4-methylcoumaryl-7-amide group; upon cleavage of the C-terminal side of phenylalanine, AMC (7-amino-4-methyl-coumarine) is released. By detecting the fluorescence of this AMC, the enzyme activity of chymase can be determined. The assay was performed using a 96-well plate (F16 Black Maxisorp Fluoronunc, manufactured by Nunc), with a reaction mixture volume of 100 μL, in solution C as a buffer solution. First, each nucleic acid was serially diluted to 0.0027-2 μM concentrations in solution C to obtain 50 μL solutions. After 10 μL of the 1 mM substrate prepared in solution C was added thereto, the plate was set to the microplate reader SpectraMax190 (manufactured by Molecular Devices Corporation), and incubated at 37° C. for 5 minutes. Separately, 0.05 μg (or 0.005 μg) of chymase (recombinant, manufactured by SIGMA) was diluted in solution C to obtain a 40 μL chymase solution, and incubated at 37° C. for 5 minutes. The chymase solution was added to the mixture of the nucleic acid and substrate to initiate an enzyme reaction. The final chymase concentration in the reaction mixture was 16.7 nM (or 1.67 nM), the final substrate concentration being 100 μM. The plate containing the reaction mixture was set to the microplate reader SpectraMax190 (manufactured by Molecular Devices Corporation), and examined for time-dependent changes in the fluorescence intensity at 37° C. for 5 minutes (or 30 minutes) (excitation wavelength 380 nm, detection wavelength 460 nm). A linear approximation of the increase in the fluorescence of the AMC released from the substrate by chymase activity was generated, and its slope was taken as the initial velocity […]. For control, samples were treated and analyzed in the same manner in two cases: use of a 30N or 40N (a nucleotide of 30 or 40 consecutive bases represented by N; N is A, G, C or T) nucleic acid pool (negative control), and use of chymostatin, a known chymotrypsin-like serine protease inhibitor (positive control). Taking the initial reaction velocity without the nucleic acid and inhibitor (V_0) as a 100% enzyme activity, the inhibitory rate of each test substance was calculated using the following equation: […]

chymase [2] = target: T2, chymase; assay: Surface plasmon resonance (Biacore T100), aptamer immobilized on SA chip, chymase injected as analyte; format: binding; set-up: key: ++: a sequence that binds to chymase significantly more strongly than the negative control 30N; settings: Table 2; same manner as Example 1, running buffer solution C; compared with 30N
Description: (§2) Binding strength is measured using Biacore T100 (manufactured by GE Healthcare). In a method of measurement, the aptamer is first immobilized onto a sensor chip, the amount immobilized being about 1000 RU. 20 μL of a chymase solution for analyte, prepared at 0.2 μM, is injected, and the binding of chymase to the aptamer is detected. An RNA comprising a random nucleotide sequence of 30 or 40 nucleotides is used as a negative control.
(§3) The binding activities against chymase of the nucleic acids shown by SEQ ID NO: 4-20 and 22-34 were determined by the surface plasmon resonance method using Biacore T100 (manufactured by GE Healthcare). The sensor chip used was the SA chip, which had streptavidin immobilized thereon. Bound thereto was about 1500 RU of a 16-nucleotide Poly dT with biotin bound to the 5′ end thereof. […] 20 μL of chymase for analyte, prepared at 0.2 μM, was injected. Solution A was used as a running buffer.
(§4) The binding activities against chymase of the nucleic acids shown by SEQ ID NO: 38-48 were evaluated by the surface plasmon resonance method. In the evaluations for SEQ ID NO: 38-48, measurements were taken in the same manner as Example 1. Solution C was used as a running buffer.

[3] = target: T3, chymase (recombinant, manufactured by SIGMA); assay: Chymase inhibitory activity using synthetic substrate Suc-Ala-Ala-Pro-Phe-MCA; format: biochemical; settings: Table 3; substrate 100 μM, solution C, 37° C.; mean value for 2 to 3 measurements
In short: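 Human recombinant chymase (16.7 nM or 1.67 nM final) preincubated 5 min at 37° C., then added to nucleic acid (0.0027–2 μM serial dilutions) and 100 μM substrate in solution C. AMC fluorescence (ex 380/em 460 nm) followed 5 or 30 min at 37° C.; slope gives initial velocity, inhibition versus no-inhibitor control yields IC50.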

chymase (recombinant) [4] = target: T1, chymase (recombinant); assay: inhibition; SPR ++; settings: tags: SIGMA, expressed in yeast
Description: as §1
The chymase inhibitory activity was measured in the same manner as in Example 3.

chymase [5] = target: T2, chymase; assay: Surface plasmon resonance (Biacore T100), aptamer immobilized on SA chip, chymase injected as analyte; format: binding; settings: Table 1; about 1000 RU nucleic acid immobilized, chymase 0.2 μM analyte, running buffer solution A; compared with 40N
Description: as §2, §3, §4

| Molecule | IC50 (chymase (recombinant) [1]) [nM] | Binding activity as determined using Biacore (chymase [5]) | further results |
| --- | --- | --- | --- |
| B1 | 60 | – | – |
| B2 | – | – | Binding activity as determined using Biacore (chymase [2]): ++; IC50 [3]: 60 ± 17 nM |
| B3 | – | – | IC50 (chymase (recombinant) [4]): 17 nM |
| B4 | – | higher binding activity than 40N | – |
| B5 | 58 | – | – |
| B6 | – | equivalent binding activity compared with 40N | – |
| B7 | – | higher binding activity than 40N | – |
| B8 | 140 | – | – |
| B9 | – | higher binding activity than 40N | – |
| B10 | 38 | – | – |
| B11 | 124 | – | – |
| B12 | – | – | IC50 (chymase (recombinant) [4]): 13 nM |
| B13 | 74 | – | – |
| B14 | – | higher binding activity than 40N | – |
